Paper PMC4317571

Experiments:
[1] = molecular target: p53 K382ac peptide (Homo sapiens) (UniProt P04637); conditions: cited from earlier work
bromodomain (BD) of p300 = assay: NMR titration
[2] = molecular target: tandem Tudor domain (TTD) of p53-binding protein 1 (53BP1), wild type (UniProt Q12888); assay: other fluorescence titration
[3] = molecular target: tandem Tudor domain (TTD) of p53-binding protein 1 (53BP1), wild type (UniProt Q12888); assay: other fluorescence titration + NMR titration

Substance	Kd [1] [µM]	Kd (bromodomain (BD) of p300) [µM]	Kd [2] [nM]	Kd [3] [mM]
CBP bromodomain (from UniProt Q92793)	187	–	–	–
p53K381acK382me2 peptide (p53 acetylated at K381 and dimethylated at K382) (from UniProt P04637 377-386)	–	282	760	–
p53K381ac peptide (p53 acetylated at K381) (from UniProt P04637 377-386)	–	241	–	> 5
